Experimental data reported in paper PMC11984392 (2025).
*1 amine or outer side, *2 acyl side, *3 side chain or, on linkers, in order; H or OH if unused. Bridges are numbered along the chain shown (N, C = ends). Primed or numbered codes have the meaning given here. [ ]: non-standard residue; d: D form. The star is where a group is joined. TATA = O=C(CC[*:1])N1CN(C(=O)CC[*:2])CN(C(=O)CC[*:3])C1; NOTA = O=C(O)CN1CCN(CC(=O)O)CCN(CC(=O)*)CC1; Hyp = O=C(O)[C@@H]1C[C@@H](O)CN1; hArg = N=C(N)NCCCC[C@H](N)C(=O)O; PEG2′ = not defined here; Sar = CNCC(=O)O

Key:
His-tagged human EphA2 = His-tagged human EphA2 (human, UniProt P29317 24-537); test: SPR
His-tagged mouse EphA2 = biological target: T1, His-tagged mouse EphA2 (mouse, UniProt Q03145 26-538); test: SPR
T1 chain: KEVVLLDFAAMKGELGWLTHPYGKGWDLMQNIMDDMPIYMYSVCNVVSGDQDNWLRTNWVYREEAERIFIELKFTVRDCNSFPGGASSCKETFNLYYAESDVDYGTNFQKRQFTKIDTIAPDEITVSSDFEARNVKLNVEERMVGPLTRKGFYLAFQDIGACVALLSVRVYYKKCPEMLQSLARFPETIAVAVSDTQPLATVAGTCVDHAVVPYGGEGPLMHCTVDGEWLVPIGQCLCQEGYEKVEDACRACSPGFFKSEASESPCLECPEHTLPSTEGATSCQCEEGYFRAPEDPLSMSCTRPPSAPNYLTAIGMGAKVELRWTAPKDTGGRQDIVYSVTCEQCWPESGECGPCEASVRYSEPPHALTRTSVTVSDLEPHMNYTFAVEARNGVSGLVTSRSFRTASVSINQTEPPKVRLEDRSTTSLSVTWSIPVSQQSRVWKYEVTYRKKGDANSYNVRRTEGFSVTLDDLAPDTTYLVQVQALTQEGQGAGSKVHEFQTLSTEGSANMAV

His-tagged human EphA2, sequence (P29317 24-537): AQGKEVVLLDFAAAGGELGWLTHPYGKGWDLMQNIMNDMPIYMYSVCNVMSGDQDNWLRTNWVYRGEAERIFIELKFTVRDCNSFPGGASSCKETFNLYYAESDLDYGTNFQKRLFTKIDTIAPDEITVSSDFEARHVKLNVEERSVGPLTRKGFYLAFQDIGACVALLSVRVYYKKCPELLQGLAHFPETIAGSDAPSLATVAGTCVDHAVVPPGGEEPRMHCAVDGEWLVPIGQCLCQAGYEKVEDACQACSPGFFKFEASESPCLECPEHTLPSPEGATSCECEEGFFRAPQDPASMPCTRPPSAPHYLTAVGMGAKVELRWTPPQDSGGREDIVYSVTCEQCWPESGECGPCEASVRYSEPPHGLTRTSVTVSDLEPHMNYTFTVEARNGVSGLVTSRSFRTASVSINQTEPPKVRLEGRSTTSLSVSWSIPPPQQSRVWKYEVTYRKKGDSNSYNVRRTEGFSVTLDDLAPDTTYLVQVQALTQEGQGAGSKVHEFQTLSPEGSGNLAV

B1: AJ201 (peptide)
peptide: {NOTA-PEG2′}-GR[Sar][Sar][Sar]GA[hArg]DC[Hyp]LVNPLCLHP[dD]W[hArg]C-NH2
modifications: linker 10-17-24 via TATA; not fully specified; also: hydroxyproline, place not given here
His-tagged human EphA2
  koff: 0.00133 s⁻¹
His-tagged mouse EphA2
  koff: 0.00301 s⁻¹
